Starred links: 1 amine or outer side, 2 acyl side, 3 side chain; linkers in the order of their positions; H or OH if unused. Positions of bridges follow the written chain, without caps; N, C: chain ends. Non-standard residues stand in square brackets, D forms with d. TATB = O=C(C[*:1])N1CN(C(=O)C[*:2])CN(C(=O)C[*:3])C1; Phe(4-CONH2) = NC(=O)c1ccc(C[C@H](N)C(=O)O)cc1; Val(3-OH) = CC(C)(O)[C@H](N)C(=O)O; Hyp = O=C(O)[C@@H]1C[C@@H](O)CN1; Tle = CC(C)(C)[C@H](N)C(=O)O
B1: BCY23204 (peptide)
peptide: CPXDAYLGCXSYCEXW
modifications: CP[HyP]DAYLGC[tBuGly]SYCE[HyP]W: HyP at 3 and 15, tBuGly at 10; N-terminal acetyl; C-terminal CONH2; Cys 1, 9, 13 bonded to TATB scaffold
notes: Bicyclic peptide
B2: BCY23200 (peptide)
peptide: CPXDAYLGCXSXCEPW
modifications: CP[HyP]DAYLGC[tBuGly]S[DOPA]CEPW: HyP at 3, tBuGly at 10, DOPA at 12; N-terminal acetyl; C-terminal CONH2; Cys 1, 9, 13 bonded to TATB scaffold
notes: Bicyclic peptide
B3: BCY23210 (peptide)
peptide: CPXDAYLGCXSYCEPX
modifications: CP[HyP]DAYLGC[tBuGly]SYCEP[pCoPhe]: HyP at 3, tBuGly at 10, pCoPhe at 16; N-terminal acetyl; C-terminal CONH2; Cys 1, 9, 13 bonded to TATB scaffold
notes: Bicyclic peptide
B4: BCY23202 (peptide)
peptide: CPXDAYLGCXSXCEPW
modifications: CP[HyP]DAYLGC[tBuGly]S[pCoPhe]CEPW: HyP at 3, tBuGly at 10, pCoPhe at 12; N-terminal acetyl; C-terminal CONH2; Cys 1, 9, 13 bonded to TATB scaffold
notes: Bicyclic peptide
B5: BCY23180 (peptide)
peptide: CXXDAYLGCXSYCEPW
modifications: not fully specified; C[HyP][HyP]DAYLGC[tBuGly]SYCEPW: HyP at 2 and 3, tBuGly at 10; N-terminal acetyl; C-terminal CONH2; Cys 1, 9, 13 bonded to TATB scaffold
notes: Bicyclic peptide
B6: BCY23188 (peptide)
peptide: CPXDAXLGCXSYCEPW
modifications: CP[HyP]DA[hTyr]LGC[tBuGly]SYCEPW: HyP at 3, hTyr at 6, tBuGly at 10; N-terminal acetyl; C-terminal CONH2; Cys 1, 9, 13 bonded to TATB scaffold
notes: Bicyclic peptide
B7: BCY23182 (peptide)
peptide: CXXDAYLGCXSYCEPW
modifications: C[Cis-HyP][HyP]DAYLGC[tBuGly]SYCEPW: Cis-HyP at 2, HyP at 3, tBuGly at 10; N-terminal acetyl; C-terminal CONH2; Cys 1, 9, 13 bonded to TATB scaffold
notes: Bicyclic peptide
B8: BCY23211 (peptide)
peptide: CPXDAYLGCXSYCEPX
modifications: CP[HyP]DAYLGC[tBuGly]SYCEP[hTyr]: HyP at 3, tBuGly at 10, hTyr at 16; N-terminal acetyl; C-terminal CONH2; Cys 1, 9, 13 bonded to TATB scaffold
notes: Bicyclic peptide
B9: BCY23185 (peptide)
peptide: CPXDAXLGCXSYCEPW
modifications: CP[HyP]DA[DOPA]LGC[tBuGly]SYCEPW: HyP at 3, DOPA at 6, tBuGly at 10; N-terminal acetyl; C-terminal CONH2; Cys 1, 9, 13 bonded to TATB scaffold
notes: Bicyclic peptide
B10: BCY23203 (peptide)
peptide: CPXDAYLGCXSXCEPW
modifications: CP[HyP]DAYLGC[tBuGly]S[hTyr]CEPW: HyP at 3, tBuGly at 10, hTyr at 12; N-terminal acetyl; C-terminal CONH2; Cys 1, 9, 13 bonded to TATB scaffold
notes: Bicyclic peptide
B11: BCY23515 (peptide)
peptide: Ac-CP[Hyp]DAYLGC[Val(3-OH)]SYCEPW-NH2
modifications: linker 1-9-13 via TATB
SMILES: CC(=O)N[C@H]1CSCC(=O)N2CN3CN(C2)C(=O)CSC[C@@H](C(=O)N[C@@H](CCC(=O)O)C(=O)N2CCC[C@H]2C(=O)N[C@@H](Cc2c[nH]c4ccccc24)C(N)=O)NC(=O)[C@H](Cc2ccc(O)cc2)NC(=O)[C@H](CO)NC(=O)[C@H](C(C)(C)O)NC(=O)[C@H](CSCC3=O)NC(=O)CNC(=O)[C@H](CC(C)C)NC(=O)[C@H](Cc2ccc(O)cc2)NC(=O)[C@H](C)NC(=O)[C@H](CC(=O)O)NC(=O)[C@@H]2C[C@@H](O)CN2C(=O)[C@@H]2CCCN2C1=O
notes: Bicyclic peptide
B12: BCY23186 (peptide)
peptide: Ac-CP[Hyp]DA[Phe(4-CONH2)]LGC[Tle]SYCEPW-NH2
modifications: linker 1-9-13 via TATB
SMILES: CC(=O)N[C@H]1CSCC(=O)N2CN3CN(C2)C(=O)CSC[C@@H](C(=O)N[C@@H](CCC(=O)O)C(=O)N2CCC[C@H]2C(=O)N[C@@H](Cc2c[nH]c4ccccc24)C(N)=O)NC(=O)[C@H](Cc2ccc(O)cc2)NC(=O)[C@H](CO)NC(=O)[C@H](C(C)(C)C)NC(=O)[C@H](CSCC3=O)NC(=O)CNC(=O)[C@H](CC(C)C)NC(=O)[C@H](Cc2ccc(C(N)=O)cc2)NC(=O)[C@H](C)NC(=O)[C@H](CC(=O)O)NC(=O)[C@@H]2C[C@@H](O)CN2C(=O)[C@@H]2CCCN2C1=O
notes: Bicyclic peptide
B13: BCY23209 (peptide)
peptide: CPXDAYLGCXSYCEPX
modifications: CP[HyP]DAYLGC[tBuGly]SYCEP[pCaPhe]: HyP at 3, tBuGly at 10, pCaPhe at 16; N-terminal acetyl; C-terminal CONH2; Cys 1, 9, 13 bonded to TATB scaffold
notes: Bicyclic peptide
B14: BCY23224 (peptide)
peptide: CPXDAYLGCXXYCEPW
modifications: CP[HyP]DAYLGC[tBuGly][HSer]YCEPW: HyP at 3, tBuGly at 10, HSer at 11; N-terminal acetyl; C-terminal CONH2; Cys 1, 9, 13 bonded to TATB scaffold
notes: Bicyclic peptide

The binders below were run against T1, Recombinant human His-tagged TfR1 (a.a. 89-760) (ACRO Biosystems, CD1-H5243) (human, UniProt P02786 89-760) (assay: SPR (Biacore), TfR1 captured/coupled on NTA chip, peptide as analyte).
T1 construct: range 89-760; Bought protein; Captured and amine-coupled on an NTA chip; also called human TfR1; transferrin receptor 1; not shown: His tag (printed 'Hiss-tagged')
T1 sequence (P02786 89-760 limits assumed): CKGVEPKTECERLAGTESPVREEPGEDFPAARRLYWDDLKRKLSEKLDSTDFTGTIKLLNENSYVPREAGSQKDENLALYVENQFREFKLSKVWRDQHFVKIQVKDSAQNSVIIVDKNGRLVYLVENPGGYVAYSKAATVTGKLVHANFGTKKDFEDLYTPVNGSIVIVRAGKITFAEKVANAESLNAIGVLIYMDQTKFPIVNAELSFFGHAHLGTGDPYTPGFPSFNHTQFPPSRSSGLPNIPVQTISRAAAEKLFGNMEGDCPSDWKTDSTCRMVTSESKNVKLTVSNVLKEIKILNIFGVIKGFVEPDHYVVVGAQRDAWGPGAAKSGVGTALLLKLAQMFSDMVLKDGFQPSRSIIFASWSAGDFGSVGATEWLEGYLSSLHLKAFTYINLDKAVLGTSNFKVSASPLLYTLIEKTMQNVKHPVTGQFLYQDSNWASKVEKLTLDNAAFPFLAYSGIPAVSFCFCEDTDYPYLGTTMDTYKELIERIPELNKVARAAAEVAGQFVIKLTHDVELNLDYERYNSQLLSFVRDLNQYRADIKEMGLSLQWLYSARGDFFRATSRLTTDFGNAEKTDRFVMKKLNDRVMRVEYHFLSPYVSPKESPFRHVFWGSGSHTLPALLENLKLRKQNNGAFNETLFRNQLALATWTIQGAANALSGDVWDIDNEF
In the case of B1, the Kd is reported as 9 nM.
Binder B2 has a Kd of 9.5 nM.
B3 gave a Kd of 8.6 nM.
In the case of B4, the Kd is reported as 23 nM.
In the case of B5, the Kd is reported as 50 nM.
Binder B6 has a Kd of 109 nM.
Binder B7 has a Kd of 22 nM.
B8 gave a Kd of 7.7 nM.
Work on B9 yielded a Kd of 12 nM.
For B10, the Kd was 283 nM.
For B11, the Kd was 85 nM.
With B12 the Kd was 27 nM.
With B13 the Kd was 5.6 nM.
In the case of B14, the Kd is reported as 1140 nM.

— patent US20250276073A1 (Bicycle, published 2025)
